One data set relates to RL95-2 cells. Nature of the data set: TUNEL assay. It is filed as cell-based, human. The following applies: 100 nM siRNA, vs control siRNA; DNase positive control. The text has this: To test for the involvement of apoptosis, we used siRNA against PME-1 or control siRNA and conducted an immunofluorescence assay called a TUNEL assay. In this assay, all cells were stained blue with the nuclear stain, DAPI, and cells that were undergoing apoptosis would stain green with the addition of fluorescein, which bound to fragmented DNA. Fragmented DNA is a hallmark of apoptotic cells. […] A positive control was included in the assay to determine that the assay conditions were optimal. In the positive control, RL95-2 cells were treated with DNase.
RL95-2 cells were plated in a chamber-slide and allowed to grow over night at 37° C. Cells were transfected the next day with 100 nM of siRNA (Thermo Scientific) using Dharmafect 1 transfection reagent (siRNA sequences are summarized in Table S2). Transfections were repeated on day four and the cultures were terminated the day after. The assay was performed according to the manufacturer's instructions (Roche Applied Science, counterstained with DAPI and photographed using Leica DM16000 B microscope. Cells incubated with 1U/μl of DNase I (Life Technologies) served as a positive control. The experiment was repeated three times.

Data set [1] concerns the target T1, FLAG-tagged PME-1 (over-expression of wild-type PME-1) (human, UniProt Q9Y570 1-386).
T1 construct: Expressed in ECC-1 cells and pulled down from lysate with FLAG resin; also called FLAG-PME-1; protein methylesterase 1; not shown: FLAG tag; an N-terminal FLAG vector p3XFLAG-CMV-10 is named in the methods for RL95-2 cells
T1 sequence (looked up): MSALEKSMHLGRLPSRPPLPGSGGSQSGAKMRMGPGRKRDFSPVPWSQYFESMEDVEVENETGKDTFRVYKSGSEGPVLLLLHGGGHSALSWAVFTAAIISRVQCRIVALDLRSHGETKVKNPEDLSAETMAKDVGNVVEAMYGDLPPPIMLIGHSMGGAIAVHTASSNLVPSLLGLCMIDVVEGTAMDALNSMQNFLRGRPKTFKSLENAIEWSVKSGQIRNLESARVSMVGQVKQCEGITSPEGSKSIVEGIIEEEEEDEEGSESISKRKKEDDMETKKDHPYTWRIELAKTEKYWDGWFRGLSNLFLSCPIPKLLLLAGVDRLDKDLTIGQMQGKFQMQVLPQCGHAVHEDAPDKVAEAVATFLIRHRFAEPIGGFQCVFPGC
Nature of the data set: FLAG co-immunoprecipitation from ECC-1 lysate, western blot with anti-Ppp6c. On the technique in general: In western blotting, separated proteins are transferred to a membrane and probed.

The target in data set [2] is T2, FLAG-tagged PME-1 S156A (catalytically inactive mutant) (human, UniProt Q9Y570 1-386).
T2 construct: Expressed in ECC-1 cells and pulled down from lysate with FLAG resin; also called FLAG-PME-1 S156A; FLAG PME-1 S156A; not shown: FLAG tag; an N-terminal FLAG vector p3XFLAG-CMV-10 is named in the methods for RL95-2 cells
T2 sequence (looked up): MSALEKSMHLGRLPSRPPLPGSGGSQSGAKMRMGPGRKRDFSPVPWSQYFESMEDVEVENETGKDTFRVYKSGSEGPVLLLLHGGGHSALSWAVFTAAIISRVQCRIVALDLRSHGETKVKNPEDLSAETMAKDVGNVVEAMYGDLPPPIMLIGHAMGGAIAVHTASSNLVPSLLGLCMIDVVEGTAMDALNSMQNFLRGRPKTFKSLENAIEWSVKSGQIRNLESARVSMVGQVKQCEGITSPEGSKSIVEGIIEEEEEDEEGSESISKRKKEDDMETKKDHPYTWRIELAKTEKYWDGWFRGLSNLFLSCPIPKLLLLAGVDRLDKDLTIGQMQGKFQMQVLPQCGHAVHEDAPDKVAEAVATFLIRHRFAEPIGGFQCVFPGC
Described as above.

For “PPME1 siRNA no. 1: siRNA, SEQ ID NO: 4: TGG CTG GTG TTG ATA GAT T, bp 959-977 (guide TGGCTGGTGTTGATAGATT; listed as DNA, chemistry not given here; listed as Homo sapiens)”, the “detection of apoptotic cells” value in the data set on RL95-2 cells is “did not lead to detection of apoptotic cells”.

B1: Endogenous Ppp6c, the catalytic subunit of PP6 (enzyme, human, UniProt O00743 1-305, looked up)
chain: MAPLDLDKYVEIARLCKYLPENDLKRLCDYVCDLLLEESNVQPVSTPVTVCGDIHGQFYDLCELFRTGGQVPDTNYIFMGDFVDRGYYSLETFTYLLALKAKWPDRITLLRGNHESRQITQVYGFYDECQTKYGNANAWRYCTKVFDMLTVAALIDEQILCVHGGLSPDIKTLDQIRTIERNQEIPHKGAFCDLVWSDPEDVDTWAISPRGAGWLFGAKVTNEFVHINNLKLICRAHQLVHEGYKFMFDEKLVTVWSAPNYCYRCGNIASIMVFKDVNTREPKLFRAVPDSERVIPPRTTTPYFL
notes: Endogenous protein of ECC-1 cell lysate, probed by western blot with anti-Ppp6c; also called protein phosphatase 6 catalytic subunit
Consider B1, for which the binding result in data set [1] and in data set [2] was “no binding” in each case.

Source of the values: US20200190592A1, “PME-1 AS A BIOMARKER TO PREDICT AND DIAGNOSE AN INCREASED RISK OF ENDOMETRIAL CANCER AND GENE SILENCING OF PME-1 TO INHIBIT EPITHELIAL TO MESENCHYMAL TRANSITION” (Medical Diagnostic Laboratories, L.L.C., priority 2018, published 2020).
